# According to US20190056396A1 (GLENMARK PHARMACEUTICALS S A, published 2019):
# Assays:
# Protein A [1] = target: T1, Protein A (UniProt P38507 37-477); assay: flow cytometry, FITC-labelled Protein A on CHO-S cells transfected with pHC-M1M2 + pLC
# T1 construct: also called Protein A biosensors
# Protein A [2] = target: T1, Protein A; assay: Octet QK, Protein A biosensors, supernatant day 6
Binder,binding result (Protein A [1]),binding result (Protein A [2])
"heavy chain-light chain homodimer of the BEAT antibody displayed on the cell membrane of CHO-S cells via the M1M2 transmembrane region (pHC-M1M2 + pLC) (antibody, also called Fab-DIM; Fab homodimer) heavy: not shown light: QIVLTQSPAIMSASPGEKVTMTCSASSSVSYMNWYQQKSGTSPKRWIYDTSKLASGVPAHFRGSGSGTSYSLTISGMEAEDAATYYCQQWSSNPFTFGSGTKLEINRTVAAPSVFIFPPSDEQLKSGTASVVCLLNNFYPREAKVQWKVDNALQSGNSQESVTEQDSKDSTYSLSSTLTLSKADYEKHKVYACEVTHQGLSSPVTKSFNRGEC",no binding,
"secreted heavy chain-light chain homodimer of the BEAT antibody (antibody, also called Fab-DIM; Fab homodimer) heavy: not shown light: QIVLTQSPAIMSASPGEKVTMTCSASSSVSYMNWYQQKSGTSPKRWIYDTSKLASGVPAHFRGSGSGTSYSLTISGMEAEDAATYYCQQWSSNPFTFGSGTKLEINRTVAAPSVFIFPPSDEQLKSGTASVVCLLNNFYPREAKVQWKVDNALQSGNSQESVTEQDSKDSTYSLSSTLTLSKADYEKHKVYACEVTHQGLSSPVTKSFNRGEC",,no binding
